Experimental findings from patent publication US20240109974A1 (SHANDONG SIMCERE BIOPHARMACEUTICAL, published 2024) are described below.

Residue numbers refer to the chain shown, from its start.

The chains are these.
T1: Cynomolgus TNFR2-His (Sino 90102-C08H) (cynomolgus monkey, UniProt A0A2K5VET2 132-366)
T1 construct: Bought protein; also called cynomolgus monkey TNFR2; recombinant cynomolgus monkey TNFR2 protein; not shown: His tag
T1 sequence: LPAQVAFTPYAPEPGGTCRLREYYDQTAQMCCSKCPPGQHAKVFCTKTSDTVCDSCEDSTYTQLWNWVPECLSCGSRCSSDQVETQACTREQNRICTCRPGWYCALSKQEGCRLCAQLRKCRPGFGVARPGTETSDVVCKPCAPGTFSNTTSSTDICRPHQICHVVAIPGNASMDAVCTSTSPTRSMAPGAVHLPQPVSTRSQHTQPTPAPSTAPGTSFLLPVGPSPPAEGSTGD

T2: human TNFR2 (Novoprotein, Cat #C830) (human, UniProt P20333 23-257, limits assumed)
T2 construct: construct not described; also called human TNFR2 protein
T2 sequence (looked up): T1 sequence with G16S, P36S, Q117P, H164N, A210E, G216S, V223M

T3: Human TNFR2-His (Sino 10417-H08H) (human, UniProt P20333 23-257)
T3 construct: Bought protein; also called recombinant human TNFR2 protein; not shown: His tag
T3 sequence (looked up): T1 sequence with G16S, P36S, Q117P, H164N, A210E, G216S, V223M

B1: 224-Hu1 (antibody, V domains shown)
VH: QVQLVQSGAEVKKPGASVKVSCKASGFNNKDIYMHWVRQAPGQGLEWIGRIDPATGNTKHDPKFQDRVTMTSDTSTNTVYMELSSLRSEDTAVYYCARSPYGDFGAMDYWGQGTLVTVSS
VL: DIQMTQSPSSLSASVGDRVTITCTASSSVSSNYLHWYQQKPGKAPKLWIYSTSNLPSGVPSRFSGSGSGTDFTLTISSLQPEDFATYYCHQYHRSPWTFGQGTKVEIK
notes: Humanized form of #224; also called VH8 + VL6
B2: 224-Hu7 (antibody, V domains shown)
VH: QVQLVQSGSELKKPGASVKVSCKASGFNNKDIYMHWVRQAPGQGLEWMGRIDPATGNTKHDPKFQDKAVLSSDTSVSTAYLQISSLKAEDTAVYYCARSPYGDFGAMDYWGQGTLVTVSS
VL: B1 VL with W48L
notes: Humanized form of #224; also called VH9 + VL10
B3: 224-Hu5 (antibody, V domains shown)
VH: B2 VH
VL: B1 VL with W48L, F72Y, T73S
notes: Humanized form of #224; also called VH9 + VL9
B4: 224-Hu3 (antibody, V domains shown)
VH: B2 VH
VL: B1 VL with W48L, P81A, F84A
notes: Humanized form of #224; also called VH9 + VL8
B5: 224-Hu4 (antibody, V domains shown)
VH: B2 VH
VL: B1 VL
notes: Humanized form of #224; also called VH9 + VL6
B6: 224-Hu2 (antibody, V domains shown)
VH: B2 VH
VL: B1 VL with K43S, A44S
notes: Humanized form of #224; also called VH9 + VL7
B7: 224-Hu6 (antibody, V domains shown)
VH: B1 VH
VL: B1 VL with K43S, A44S
notes: Humanized form of #224; also called VH8 + VL7

In one assay the target is T1, Cynomolgus TNFR2-His (Sino 90102-C08H). As to the kind of experiment: ELISA, cynomolgus TNFR2-His coated; EC50 against 224-WT. As for the experimental part:
(§1) The test humanized antibody against TNFR2 (as described in Example 1, the antibody was comprised of variable regions linked to IgG-Fc; the WT chimeric antibody also adopted the IgG-Fc structure) was subjected to 3.33-fold gradient dilution, loaded with 100 μl/well, and incubated with shaking at room temperature for 1.5 hours. The plate was washed, and then a working solution of murine anti-human IgG Fc-HRP (diluted at 1:10000) was added, loaded with 100 μl/well, and incubated with shaking at room temperature for 1.0 hour. The plate was washed again, and then the substrate TMB of HRP was added to develop colour. A stop solution was added to stop the reaction, and then a microplate reader (MD 13) was used to read the absorbance value. The binding curve of an antibody was drawn with antibody concentration as the abscissa and corresponding OD value as the ordinate, and fitted with four parameters (GraphPad Prism9) to calculate the EC50 value. The smaller the EC50 value, the stronger the binding ability of an antibody to human/cynomolgus monkey TNFR2. The binding effect of a humanized antibody was normalized to its corresponding human-murine chimeric antibody WT (see SEQ ID NOs: 38-43 for the sequence). The higher the percentage value, the better the binding effect of the humanized antibody. The results of binding of an anti-TNFR2 antibody to a human TNFR2 protein are shown in FIG. 1 and Table 4, and the results of binding of an anti-TNFR2 antibody to cynomolgus monkey TNFR2 are shown in FIG. 2 and Table 4.
(An ELISA detects its analyte on a solid surface through an enzyme-linked reagent.)
Take B1: the “% Relative activity (WT antibody/test antibody)” value worked out at 105%.
Regarding B2, the “% Relative activity (WT antibody/test antibody)” value was found to be 116%.
On the same count and under the same terms, the figure for B3 is 106%; for B4 it is 108%; for B5 it is 108%.
For the molecule B6, the “% Relative activity (WT antibody/test antibody)” value amounted to 109%.
On the same count and under the same terms, the figure for B7 is 104%.

The next assay addresses T2, human TNFR2 (Novoprotein, Cat #C830). As to the kind of experiment: competition ELISA, competitor human TNFα-Biotin; AUC against 224-WT. As for the experimental part: 1 μg/ml human TNFR2 (Novoprotein, Cat #C830) was pre-coated with 100 μl/well […] in an ELISA plate. All the test TNFR2 antibodies were subjected to 2.5-fold gradient dilution from the highest concentration of 30 μg/ml; the diluted antibodies were mixed with 15 ng/ml human TNFα-Biotin (Acro Biosystem, Cat #TNA-H82E3) in equal volume, respectively; the resulting mixture was added to the ELISA plate at 100 μl/well, and incubated with shaking at room temperature for 2.0 hours. The plate was washed, and then a Streptavidin-HRP working solution (diluted at 1:10000) was added at 100 μl/well, and the mixture was incubated with shaking at room temperature for 40 minutes. The plate was washed again, and then the substrate TMB of HRP was added to develop colour. A stop solution was added to stop the reaction, and then a microplate reader (MD 13) was used to read the absorbance value. The inhibitory curve of an antibody was drawn with antibody concentration as the abscissa and corresponding OD value as the ordinate, and fitted with four parameters (GraphPad Prism9) to calculate the IC50 value. The smaller the IC50 value, the stronger the ability of an antibody to inhibit the binding of human TNFα to human TNFR2. The blocking effect of a humanized antibody was normalized to its corresponding human-murine chimeric antibody WT. The higher the percentage value, the better the inhibitory effect of the humanized antibody.
For B1, the “% Relative activity (WT antibody/test antibody)” value was 98.8%.
In the case of B2, the “% Relative activity (WT antibody/test antibody)” value turned out to be 100%.
The same measure, in the same setting: the figure for B3 is 97.2%; for B4 it is 98.2%; for B5 it is 100%.
On the same count and under the same terms, the result for B6 reads 102%.
B7: the “% Relative activity (WT antibody/test antibody)” value was 100%.

Another assay has as its target T3, Human TNFR2-His (Sino 10417-H08H). As to the kind of experiment: ELISA, human TNFR2-His coated; EC50 against 224-WT. As for the experimental part: as §1
Regarding B1, the “% Relative activity (WT antibody/test antibody)” value was determined as 143%.
As for B2, the “% Relative activity (WT antibody/test antibody)” value came out at 110%.
B3: the “% Relative activity (WT antibody/test antibody)” value is 99.4%.
On the same count and under the same terms, the result for B4 reads 122%; that for B5, 108%.
For the molecule B6, the “% Relative activity (WT antibody/test antibody)” value is 138%.
Still for that read-out and setting: the result for B7 reads 104%.
